Measured values as given in patent US5834244.

What follows are binders tested against rabbit TF-FVIIa in the PT assay (rabbit thromboplastin with rabbit plasma) (rabbit).

Binder	fold increase of clotting time over baseline, PT assay in rabbit plasma (fold increase over baseline at 50 µM)
IV-32B (designed binder) VREVCSEQAEPGPCKALMKRWYFDVTEGKCAPFYYGGCYGNRNNFDTEEYCAAVCGSA	1.2
IV-49C (designed binder) VREVCSEQAEPGPCRALMKRWYFDVTEGKCAPFIYGGCYGNRNNFDTEEYCAAVCGSA	4.4
IV-54C (designed binder) VREVCSEQAEPGPCRALMKRWYFDVTEGKCAPFVYGGCYGNRNNFDTEEYCAAVCGSA	3.5
